Target: T1, His-tag fusion human PRMT5 protein (human, UniProt O14744 1-637)
T1 construct: Protein arginine methyltransferase 5 (PRMT5), human; also called His-tagged PRMT5; his-tagged PRMT5; source: E. coli BL21DE3, recombinant; not shown: His-tag, N-terminal, kept
Assay: pull-down; GST fusion proteins immobilized on glutathione-Sepharose 4B beads, mixed with His-tag fusion human PRMT5; 4 °C, 2 h; beads washed four times; western blot with anti-His-tag mAb
Details: both partners purified

T1 sequence (O14744 whole entry, the tested form may be a part): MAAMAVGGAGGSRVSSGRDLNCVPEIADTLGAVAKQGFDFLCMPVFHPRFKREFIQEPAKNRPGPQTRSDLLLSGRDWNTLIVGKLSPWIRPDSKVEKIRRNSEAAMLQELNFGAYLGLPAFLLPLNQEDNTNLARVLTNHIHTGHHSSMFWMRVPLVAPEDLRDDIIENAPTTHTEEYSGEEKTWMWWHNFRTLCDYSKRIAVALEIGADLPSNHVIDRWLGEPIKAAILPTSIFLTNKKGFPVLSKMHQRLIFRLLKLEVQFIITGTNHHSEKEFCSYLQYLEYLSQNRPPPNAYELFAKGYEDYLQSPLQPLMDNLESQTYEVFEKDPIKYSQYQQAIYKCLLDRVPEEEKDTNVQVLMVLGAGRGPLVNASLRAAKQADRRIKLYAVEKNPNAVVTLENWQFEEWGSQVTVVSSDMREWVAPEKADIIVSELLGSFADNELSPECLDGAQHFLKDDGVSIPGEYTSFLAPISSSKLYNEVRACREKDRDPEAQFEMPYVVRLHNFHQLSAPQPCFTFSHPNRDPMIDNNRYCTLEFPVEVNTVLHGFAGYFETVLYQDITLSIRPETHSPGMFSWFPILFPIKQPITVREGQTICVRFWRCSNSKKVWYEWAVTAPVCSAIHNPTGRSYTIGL

| Binder | binding result |
| --- | --- |
| recombinant full-length GST-Smad3 (natural protein, human, UniProt P84022 1-425, looked up, Smad3, full length; the only Smad3 cDNA named is the pCMV Flag hSmad3 vector (human); The methods tell the cloning into pGEX6P1 only for the deletion mutants; the full-length GST construct is not described; also called GST-tagged Smad3; source: E. coli BL21DE3, recombinant, immobilized on glutathione-Sepharose 4B beads) MSSILPFTPPIVKRLLGWKKGEQNGQEEKWCEKAVKSLVKKLKKTGQLDELEKAITTQNVNTKCITIPRSLDGRLQVSHRKGLPHVIYCRLWRWPDLHSHHELRAMELCEFAFNMKKDEVCVNPYHYQRVETPVLPPVLVPRHTEIPAEFPPLDDYSHSIPENTNFPAGIEPQSNIPETPPPGYLSEDGETSDHQMNHSMDAGSPNLSPNPMSPAHNNLDLQPVTYCEPAFWCSISYYELNQRVGETFHASQPSMTVDGFTDPSNSERFCLGLLSNVNRNAAVELTRRHIGRGVRLYYIGGEVFAECLSDSAIFVQSPNCNQRYGWHPATVCKIPPGCNLKIFNNQEFAALLAQSVNQGFEAVYQLTRMCTIRMSFVKGWGAEYRRQTVTSTPCWIELHLNGPLQWLDKVLTQMGSPSIRCSSVS | binds |
| GST-Smad3 deletion mutant aa 225-425 (domain or fragment, PCR product cloned into pGEX6P1 (BamHI, XhoI); cDNA from the pCMV Flag hSmad3 vector (human); source: E. coli BL21DE3, recombinant, immobilized on glutathione-Sepharose 4B beads) not shown | binds |

Reference: PMC10951424, “Fibroblast-specific PRMT5 deficiency suppresses cardiac fibrosis and left ventricular dysfunction in male mice” (Nature Communications, 2024)
